Reference: patent publication US20230416371A1 (Chugai, published 2023)
Changes are numbered by the printed parent chain. Names may count otherwise.

Columns and labels:
[1] = molecular target: hFcγRIIIaV on hFcγRIIIaV-expressing Jurkat cells (human, UniProt P08637 17-254); test: cell-based or functional assay
[2] = molecular target: T1, human FcγRIIb extracellular domain (human, UniProt P31994 43-217); test: SPR Biacore 8K+, 25 C, antibody captured, FcγR as analyte, steady state affinity model
T1 construct: extracellular domain; also called hFcγRIIb
T1 sequence (looked up): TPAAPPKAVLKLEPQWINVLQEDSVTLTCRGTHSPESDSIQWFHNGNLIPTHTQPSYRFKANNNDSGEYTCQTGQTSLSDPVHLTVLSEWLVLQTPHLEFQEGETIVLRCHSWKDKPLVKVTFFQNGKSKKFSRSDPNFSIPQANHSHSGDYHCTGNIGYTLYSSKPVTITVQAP
Protocol: (§1) The extracellular domains of FcγRs were produced by the method described in WO2014104165. The interaction between the produced antibodies and human FcγRs was analyzed using Biacore 8K+by the method below. For the running buffer, 50 mM Na-Phosphate, 150 mM NaCl, and 0.05% Tween20 (pH 7.4) was used, and measurement was performed at 25° C. The sensor chip used was a Series S SA chip (GE Healthcare) onto which CaptureSelect Human Fab-kappa Kinetics Biotin Conjugate (Thermo Fisher Scientific) was immobilized. An antibody of interest was captured onto this chip, and each FcγR diluted with the running buffer was allowed to interact with it. The chip was regenerated using 10 mM Glycine-HCl (pH 1.5), and repeatedly used to capture antibodies and perform measurement. The dissociation constants KD (mol/L) of each antibody for FcγRs were calculated using Biacore Insight Evaluation Software, with a steady state affinity model for the dissociation constant for FcγRIIb and a 1:1 Langmuir binding model for the dissociation constants for the other FcγRs (Table 2).

[3] = molecular target: T2, human FcγRIIIa V (allotype V158) extracellular domain (human, UniProt P08637 17-208); test: SPR Biacore 8K+, 25 C, antibody captured, FcγR as analyte, 1:1 Langmuir model
T2 construct: extracellular domain; also called hFcγRIIIaV
Protocol: as §1

[4] = molecular target: T1, human FcγRIIb extracellular domain; test: SPR Biacore 8K+; KD of G1d divided by KD of this antibody
Protocol: as §1

[5] = molecular target: T3, human FcγRIIa H (allotype H131) extracellular domain (human, UniProt P12318 34-217); test: as above
T3 construct: extracellular domain; also called hFcγRIIaH
T3 sequence (looked up): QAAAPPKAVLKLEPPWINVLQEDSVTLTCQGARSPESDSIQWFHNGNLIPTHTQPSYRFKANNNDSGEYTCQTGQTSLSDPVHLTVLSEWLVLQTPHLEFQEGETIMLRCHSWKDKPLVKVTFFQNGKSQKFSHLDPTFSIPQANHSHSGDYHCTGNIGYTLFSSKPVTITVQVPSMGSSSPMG
Protocol: as §1

[6] = molecular target: T3, human FcγRIIa H (allotype H131) …; test: SPR Biacore 8K+; KD for FcγRIIb divided by KD for this FcγR
Protocol: as §1

[7] = molecular target: T4, human FcγRIIIa F (allotype F158) extracellular domain (human, UniProt P08637 17-208); test: SPR Biacore 8K+, 25 C, antibody captured, FcγR as analyte, 1:1 Langmuir model
T4 construct: extracellular domain; also called hFcγRIIIaF
Protocol: as §1

[8] = molecular target: T2, human FcγRIIIa V (allotype V158) …; test: SPR Biacore 8K+; KD of G1d divided by KD of this antibody
Protocol: as §1

[9] = molecular target: T4, human FcγRIIIa F (allotype F158) …; test: SPR Biacore 8K+; KD for FcγRIIb divided by KD for this FcγR
Protocol: as §1

[10] = molecular target: T3, human FcγRIIa H (allotype H131) …; test: SPR Biacore 8K+, 25 C, antibody captured, FcγR as analyte, 1:1 Langmuir model
Protocol: as §1

[11] = molecular target: T4, human FcγRIIIa F (allotype F158) …; test: SPR Biacore 8K+; KD of G1d divided by KD of this antibody
Protocol: as §1

T4 sequence (P08637 17-208): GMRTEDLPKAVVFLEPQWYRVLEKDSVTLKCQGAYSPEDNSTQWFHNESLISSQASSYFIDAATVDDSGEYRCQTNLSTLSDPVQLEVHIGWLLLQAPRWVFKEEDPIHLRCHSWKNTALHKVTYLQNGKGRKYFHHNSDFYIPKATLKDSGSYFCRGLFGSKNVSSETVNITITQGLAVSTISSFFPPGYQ
T2 sequence (P08637 17-208 F176V): as the sequence (P08637 17-208) above, with F160V counted along it
Chain of hFcγRIIIaV on hFcγRIIIaV-expressing Jurkat cells (P08637 17-254, form in doubt): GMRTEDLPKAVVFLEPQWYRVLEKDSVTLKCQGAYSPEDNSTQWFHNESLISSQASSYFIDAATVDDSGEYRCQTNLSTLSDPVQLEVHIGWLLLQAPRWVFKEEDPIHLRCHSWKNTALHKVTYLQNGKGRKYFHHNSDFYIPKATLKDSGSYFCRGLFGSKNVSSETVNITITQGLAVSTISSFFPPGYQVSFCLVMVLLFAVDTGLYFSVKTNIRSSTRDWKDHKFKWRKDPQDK

B1: EGL-afucosyl (H240-G1d/L73-k_glycomab) (antibody)
heavy: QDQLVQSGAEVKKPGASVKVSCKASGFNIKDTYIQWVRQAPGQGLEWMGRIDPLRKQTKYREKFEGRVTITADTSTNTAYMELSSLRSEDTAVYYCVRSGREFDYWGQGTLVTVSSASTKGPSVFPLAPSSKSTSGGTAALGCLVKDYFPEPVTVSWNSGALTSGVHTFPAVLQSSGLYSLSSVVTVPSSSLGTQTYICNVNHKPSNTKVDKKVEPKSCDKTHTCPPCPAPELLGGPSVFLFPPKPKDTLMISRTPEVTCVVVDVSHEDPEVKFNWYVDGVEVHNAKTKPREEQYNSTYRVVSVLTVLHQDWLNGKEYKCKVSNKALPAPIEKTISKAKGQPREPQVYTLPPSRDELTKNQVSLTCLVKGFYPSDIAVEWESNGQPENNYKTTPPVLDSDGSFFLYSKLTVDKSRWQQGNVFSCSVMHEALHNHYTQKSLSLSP
VL: DIQMTQSPSSLSASVGDRVTITCRASQDIHKYIAWYQQKPGQAPRLLIQYTSTLQPGVPSRFSGSGSGTDYTFTISSLQPEDIATYYCLQYEQLRTFGGGTKVEIK
modifications: afucosylated (fucose-deficient sugar chain) ; Afucosylated (fucose-deficient) N-glycan at Asn297 (EU) of the heavy chain; the letters cannot carry it.
notes: Same heavy chain as EGL-G1d, produced in cells that give fucose-deficient antibodies; also called afucosylated antibody
Question: Which results are given for B1?
Answer: EC50 value of hFcγRIIIaV-mediated reporter gene induction activity [1]: 5.16 ng/mL; Kd [2]: 5850 nM; Kd [3]: 18 nM; Relative value to KD between G1d and hFcγRs [4]: 1.8 times; Relative value to KD between G1d and hFcγRs [5]: 1.1 times

B2: EGL-G1d (H240-G1d/L73-k0) (antibody, human IgG1, kappa)
heavy: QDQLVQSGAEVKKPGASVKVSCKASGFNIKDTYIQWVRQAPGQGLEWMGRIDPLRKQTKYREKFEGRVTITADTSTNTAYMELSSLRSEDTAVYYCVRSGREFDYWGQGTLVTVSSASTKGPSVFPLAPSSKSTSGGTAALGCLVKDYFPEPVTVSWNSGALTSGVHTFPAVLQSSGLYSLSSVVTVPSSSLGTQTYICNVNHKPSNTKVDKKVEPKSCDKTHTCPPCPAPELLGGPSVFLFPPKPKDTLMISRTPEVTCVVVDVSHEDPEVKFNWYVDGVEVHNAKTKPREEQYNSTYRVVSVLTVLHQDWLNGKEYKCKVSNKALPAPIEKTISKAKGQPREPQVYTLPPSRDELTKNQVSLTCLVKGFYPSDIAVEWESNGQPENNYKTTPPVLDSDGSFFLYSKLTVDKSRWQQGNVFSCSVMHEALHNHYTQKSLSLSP
light: DIQMTQSPSSLSASVGDRVTITCRASQDIHKYIAWYQQKPGQAPRLLIQYTSTLQPGVPSRFSGSGSGTDYTFTISSLQPEDIATYYCLQYEQLRTFGGGTKVEIKRTVAAPSVFIFPPSDEQLKSGTASVVCLLNNFYPREAKVQWKVDNALQSGNSQESVTEQDSKDSTYSLSSTLTLSKADYEKHKVYACEVTHQGLSSPVTKSFNRGEC
notes: Anti-human Epiregulin antibody with human IgG1 constant region G1d (C-terminal Lys and Gly deleted); parent of all Fc variants; also called H240-Gld/L73-k0; anti-hEREG control antibody
Question: With B2 as the binder, how does the “A/I ratio (KD for FcγRIIb divided by KD for each FcγR)” value [6] read?
Answer: 6.9

B3: EGL-SDALIE (H240-Kn032/L73-k0//H240-H1032/L73-k0) (antibody, human IgG1, kappa)
heavy 1: QDQLVQSGAEVKKPGASVKVSCKASGFNIKDTYIQWVRQAPGQGLEWMGRIDPLRKQTKYREKFEGRVTITADTSTNTAYMELSSLRSEDTAVYYCVRSGREFDYWGQGTLVTVSSASTKGPSVFPLAPSSKSTSGGTAALGCLVKDYFPEPVTVSWNSGALTSGVHTFPAVLQSSGLYSLSSVVTVPSSSLGTQTYICNVNHKPSNTKVDKKVEPKSCDKTHTCPPCPAPELLGGPDVFLFPPKPKDTLMISRTPEVTCVVVDVSHEDPEVKFNWYVDGVEVHNAKTKPREEQYNSTYRVVSVLTVLHQDWLNGKEYKCKVSNKALPLPEEKTISKAKGQPREPQVCTLPPSRDELTKNQVSLWCLVKGFYPSDIAVEWESNGQPENNYKTTPPVLDSDGSFFLYSKLTVDKSRWQQGNVFSCSVMHEALHNHYTQKSLSLSP
heavy 2: B3 heavy 1 with C348Y, D355C, W365S, L367A, Y406V
light: B2 light
notes: Anti-human Epiregulin IgG1 with S239D/A330L/I332E in both CH2 domains and knobs-into-holes in CH3
Question: For B3, which Kd [7] is on record?
Answer: 26.5 nM

Question: What about the “Relative value to KD between G1d and hFcγRs” value (from here on “Relative value”) [8] of the same binder?
Answer: 36.6 times

B4: EGL-ART2 (H240-Kn120/L73-k0//H240-H1068/L73-k0) (antibody, human IgG1, kappa)
heavy 1: B3 heavy 1 with L233Y, L234Y, G235W, D238M, H267D, S297A, A326D, L329A, E331I
heavy 2: QDQLVQSGAEVKKPGASVKVSCKASGFNIKDTYIQWVRQAPGQGLEWMGRIDPLRKQTKYREKFEGRVTITADTSTNTAYMELSSLRSEDTAVYYCVRSGREFDYWGQGTLVTVSSASTKGPSVFPLAPSSKSTSGGTAALGCLVKDYFPEPVTVSWNSGALTSGVHTFPAVLQSSGLYSLSSVVTVPSSSLGTQTYICNVNHKPSNTKVDKKVEPKSCDKTHTCPPCPAPELLGGPSVFLFPPKPKDTLMISRTPEVTCVVVDVSHEEPEVKFNWYVDGVEVHNAKTKPREEQYNSTYRVVSVLTVLHQDWLNGKEYKCKVSNDALPKPIEETISKAKGQPREPQVYTLPPSRCELTKNQVSLSCAVKGFYPSDIAVEWESNGQPENNYKTTPPVLDSDGSFFLVSKLTVDKSRWQQGNVFSCSVMHEALHNHYTQKSLSLSP
light: B2 light
notes: Anti-human Epiregulin IgG1 with heterodimeric (knobs-into-holes) Fc variant; also called Kn120/H1068
Question: With B4 as the binder, how does the “A/I ratio (KD for FcγRIIb divided by KD for each FcγR)” value [9] read?
Answer: 58.4

B5: EGL-ART1 (H240-Kn125/L73-k0//H240-H1076/L73-k0) (antibody, human IgG1, kappa)
heavy 1: B3 heavy 1 with L233Y, L234Q, G235W, D238M, H267D, D269E, S297A, L329A, E331I
heavy 2: B4 heavy 2 with K329M
light: B2 light
notes: Anti-human Epiregulin IgG1 with heterodimeric (knobs-into-holes) Fc variant; also called Kn125/H1076
Question: Which “Relative value” value [8] does the source give for B5 here?
Answer: 323 times

B6: EGL-GASDALIE (H240-GASDALIE/L73-k0) (antibody, human IgG1, kappa)
heavy: B3 heavy 1 with G235A, C348Y, W365T
light: B2 light
notes: Anti-human Epiregulin IgG1 with symmetric G236A/S239D/A330L/I332E
Question: Which Kd [10] does the source give for B6 here?
Answer: 152 nM

B7: EGL-ART8 (H240-Kn461/L73-k0//H240-HI443/L73-k0) (antibody, human IgG1, kappa)
heavy 1: QDQLVQSGAEVKKPGASVKVSCKASGFNIKDTYIQWVRQAPGQGLEWMGRIDPLRKQTKYREKFEGRVTITADTSTNTAYMELSSLRSEDTAVYYCVRSGREFDYWGQGTLVTVSSASTKGPSVFPLAPSSKSTSGGTAALGCLVKDYFPEPVTVSWNSGALTSGVHTFPAVLQSSGLYSLSSVVTVPSSSLGTQTYICNVNHKPSNTKVDKKVEPKSCDKTHTCPPCPAPEFQWGPMVFLFPPKPKDVLMISRTPEVTCVVVDVSDEEPEVKFNWYVDGVEVHNAKTKPREEQYNATYRVVSVLPVLHQDWLNGKEYKCKVSNDALPAPEEKTISKAKGQPREPQVCTLPPSRDELTKNQVSLWCLVKGFYPSDIAVEWESNGQPENNYKTTPPVLDSDGSFFLYSKLTVDKSRWQQGNVFSCSVMHEALHNHYTQKSLSLSP
heavy 2: B4 heavy 2 with G235A, T249V, S297A, T306P, K329A, I331E
light: B2 light
notes: Anti-human Epiregulin IgG1 with heterodimeric (knobs-into-holes) Fc variant
Question: Which “Relative value” value [8] does the source give for B7 here?
Answer: 685 times

B8: EGL-ART5 (H240-Kn462/L73-k0//H240-HI441/L73-k0) (antibody, human IgG1, kappa)
heavy 1: B7 heavy 1 with E331I
heavy 2: B4 heavy 2 with G235A, T249V, S297A, T306P, K329A
light: B2 light
notes: as for B7
Question: Which “A/I ratio (KD for FcγRIIb divided by KD for each FcγR)” value [9] does the source give for B8 here?
Answer: 387

B9: EGL-ART10 (H240-Kn494/L73-k0//H240-HI514/L73-k0) (antibody, human IgG1, kappa)
heavy 1: B7 heavy 1 with D325K
heavy 2: B4 heavy 2 with T249V, S297A, T306P, K329A, I331E
light: B2 light
notes: as for B7
Question: How did the “Relative value” value [11] turn out when B9 was run?
Answer: 1270 times

B10: EGL-GASDIE (H240-Kn037/L73-k0//H240-H1036/L73-k0) (antibody, human IgG1, kappa)
heavy 1: B3 heavy 1 with G235A, L329A
heavy 2: B3 heavy 1 with G235A, L329A, C348Y, D355C, W365S, L367A, Y406V
light: B2 light
notes: Anti-human Epiregulin IgG1 with G236A/S239D/I332E in both CH2 domains and knobs-into-holes in CH3
Question: For B10, which Kd [2] is on record?
Answer: 12.5 nM
